This data set in a line: label from the status in PepcDB records.
For “MSVKLRLPQSAYPIFDRIEEMAWARHYQQIVREEKETELADDLEKGLPQHLFESLCIDHLQRHGANKQAISHAFDDDVEFQERMAEHIRYMAETIAHHQVDIDLEDLEHHHHHH”, the protein production entry is reported as “not failed”.

On to “MSVPLILTLLAGAATFIGAFLGVLGQKPSNRMLAFSLGFAAGIMLLISLMEMLPAALDTEGMSPVLGYGMFIIGLLGYFGLDRLLPHAHPQDLVQKRQQPLPGSIKRTAILLTLGISLHNFPEGIATFVTASSNLELGFGIALAVALHNIPEGLAVAGPVYAATGSKRTAIFWAGISGMAEILGGVLAWLILGSLVSPIVMAAIMAAVAGIMVALSVDELMPLAKEIDPNNNPSYGVLCGMSIMGLSLVILQTIGIG”, for which the protein production entry is recorded as “failed”.

As for “MSVPRPMEGRASGSARIYQAGGDQYIEEHVHHHAPGSAPLFGHPWTGPAEPREAAPDSVRMPLVGRAPRVLRDRTDLMERLRAAVAGPGSDIQVLHGMGGCGKTAVAQALFTEAVRDHGRVGLWVNASERVSLRAGMLAVAGDRGATAGELAAAAGGRRAAADLVWHYLDQSAQPWLLVLDNADDPAVLEEGSWLRPSPSGTVLVTTRHATSSLWRAPATSSHRLGVLPLEDATLVLRDLAPDAGTRESARKVARRLGCLPLALTLAGAHLAHQLLESWSMDEYDRKLTEESTALVDRGASATGGGQSRHLVGRTWQLSLDGLAERGLPEATALLRLLSCWAADPVPLSLLMPAAQGGVGLEHLDPPLAAPRVEPALRALLDHSLIEMVETDGHRCVKAHGVLLDSVAGSVPDAERALLAAAAGGLLRAALPPEGAASPRARSQVRLLAPHATGLLHRSHRHDLVTAESVRLAVRLARLVYEAGDWTAALALASTAAKTAAEHLGAEHPVTIEARSGQGTVLFRLGRYAEAADLLRPVQQEALRTLGPHDERTLDAAYELQRVLHRLGDLAHARTLLDTVLDGRRQALGEDHVATLKTRCELLELRLAQDEFDGYTAAAGELAGECERRLGPEHLVTVWARDALARGLLRSGRGAEAEELFRRVLAGQRAGYGDDHPLVYGVLIQLSRAQYAQGKRERAAESAREVAEGRAVILGEDHPETVAARAWYTEVLATPPAPDDLVG”, the protein production result is reported as “failed”.

As for “MSVPSPVNESLLSQRLAALGAARSWAPNVLPELEHFIRTADDYDLLRVNPIQYGGAVRMSEADAIELFVHAAKVGLFDMDWLLICAYCPQVAGSFRELDQVHPRFQCAFCNAINDVALDDYIQVAFTVSSGVRDIIFRHPERLSVEDFYLRYNFSKGFIAPHGMTHQQLVAALSRGFADIEAHEHRSFDFEVTAGRFEVLDLSHKLLLVFFADGEPAEPQETLVQLESGRFHVPDRPTAPKDMVLGDGQFSFRQTADLSPGKHTIRIENRTDDRGRFWFVQYPPGFAPHLVEYEPFLSGKRLLLTPSFRELYKAQLVDEGESIKVSDMTFLFTDLKKSTPLYESVGDVNAYFLVRQHFEILNRIIRERSGTIIKTIGDAVMAGFERPQDAVCAAIEMIEELSRFNQTASRPLGLKVGVHRGRAIAVNLNDRIDYFGQDVNIAARVQGLADVDEVCISATAMEAPGVGDIVNSRSVSRNYENLKGIGQKMEVHRMTIPPTQT”, the protein production result is “failed”.

On to “MSVRPVDAALEGLQTMRRRPLTALAWATFSLVMLPILGLLVKIGLGDEGRQVLAGRGSSADPRELLDLVMNLGGAMVLLVALALLLGAVLQAAIIRSVLEPTNDRFAYLRLGKEEIQLLIVSLITWATALLCTIIPSGVVVLGSSLLSGAAAAWFAFLGALSVIGFSLWVAVRLSLLGPHAFSHHHIDIRAAWIQTHGQFWRLLGMFVLTIAIWILVSLLGAAVAGVIGKWLTAAVNLGASGLAASNSWLILSLLANMLLAPVFLTLQTVILVAAPARAFAQLNQDEIDAGLHA”, for which the protein production entry is recorded as “failed”.

For “MSVSPVQPDPSVIGGVPKAPFVLKPNLARLFNDRASRFEALAQGSHLAPYLNFLAGITRIQSELVSALPPPEPVPADRVERARANAMPPIDRAAMGGSPDCREVLQQFFEKAEALEKPAAAAEALAQVRTADEEMLTWMIGNVMADDLPVESLAHHLYVAAAMQIQAARLAAGLDGSRLVPIRVGVCPACGGRPVASMVIGFHGAEGARYASCSCCATMWNEVRVKCLACGSTKGIGYQAVETGDEEATVKAEVCDTCNSWMKILYQNKNPSLDVVADDVASLGLDLLMKDTEYKRAGFDPFLMGY”, the protein production entry is reported as “not failed”.

“MSVTRRELLKLAGAAGAMSLAPAIVRAQKLEKAKVQIAVGGKPLIYYLPLTIAEVKGFFKDEGLDVSIADFAGGSKALQAVVGGSADVVSGAFEHTLSLQAKGQFYRAFALQGRAPMIGVGVSKKNLPGYKGPADLKGRKIGVTAPGSSTNMVVNFFLAKHGLKASDVSFIGVGAGAGAVTALRSGQIDAISNTDPVVSMLETSGDIQIIVDTRTLKDTKEIFGGNMPAGCLYAPQAFVDANPNTAQALTNAIVRADKWIQKAGADEIAKAVPEGYLLGDPAVYKAAIGKSMEGLSPDGVIPEDGAATALKALAAFVPDFDAAKVDPAKAWTNEYTRRANEKYPNG”: the protein production result was “not failed”.

As to “MSVVTESKTARKWAMPDTLVIIFFVAILTSIATWVVPVGMFDSQEVQYQVDGQTKTRKVVDPHSFRIVTNEAGEAQYHRVQFFTTGDERPGLMNFPFEGLTSGSKFGTAVGIIMFMLVIGGAFGIVMRTGTVDNGILALIRHTRGNEVLFIPVLFVLFSLGGAVFGMGKEAVAFAIIIAPLMVRLSYDSITTVLVTYIATQIGFASSWMNPFCVVVAQGIAGVPVLSGSGLRIVVWIVATLIGLVFTLVYASRVKKNPLLSRVHESDRYFREQQDEVVQRPFTFGDWLVLLVLTGVMIWVVWGVIVHAWFIPEIASQFFTMGVVIGLIGVIFRLNGMTVNVMASSFTEGARMMIAPALLVGFAKGILLLVGNGEAGEPSVLNTLLNSIAHGISGLNNAIAAWFMLLFQAVFNFFVTSGSGQAALTMPLLAPLGDLVGVNRQVTVLAFQFGDGFSHIIYPTSASLMATLGVCRVDFRNWLKVGASLLGLLFIMSSVVVIGAQMMGYH”, the protein production result is “failed”.

For the sequence “MSVWRRRAEGREPTQAQRLFRGLVREWLWVSLILLPLTAVLSLSHGLALNNLFYDNLRRFTPLPVDPRILLVTIDDYSLQQLGRWPWPRAIHGQLLDRLSAAEAKGVLFDVILSEPGSTVENDTRLAAALCRAGNVFLPVLRQGVARYGQDIEEIPPVPLLRNCARGLGHINAEADADGTVRSVYLREGPMLAPRAQLTWLLYQLTEAEPAFPHMPGPGEPRVAQGWLRSNPVRIPFISADAGFPSVPYVSVLRGEVPPELLRDRLILVGSTAPGLGDRYVTPQSGSQGTTPGVEIQANLLNGLLQHRSVVALGQWSGMLLSMALTAVLLGLLLWRPRHALWITLGCMGLGLAGSVLMLRLGYWWSPVASLLGMLLAYLIWNWRRLSVILAYFGWELARLDSEPKVLPERRRSQAPAGDVLQGQIVALEQALSRTRDTRRFIADGLEYLPVATLISDPDGKILLANRNAREVFAHSLVGEGLIAQLAALGYPGLTEPALYPRLEQLPAVEFRDVQQRSLRMELAPLLPVDSDTAIGWLLSLTDLSVERDAEQQRSVLLRFLSHDLRAPHSAILALLDVQRHQPATPRQVYGQIEQQVRRALALTEAFVQLAKAESEAYQFEPSMFAMLVLDAFDQATTLAQLKDIHLEHDLDDEAEGLVLADQSLLTRALFNLLENAIKYSPVESRVSVRVSCTPGWLRCEISDEGRGIDAADLPQLFGQYQRFASAKGIDGLGLGLSMVKAVVDRHQGRISCQSVVGRGSCFILELPLLEE”, the protein production result is given as “failed”.

As for “MSYEDWAGGIRCSECGREYTGIECPICRQADPTEREVVTEHGNGRGDQQPPENGTVSADSGVYDIDKIEHERHTDAEKVNPEVVDPSDYVTRAVSGVVFNKRHAWKAENRADEDNPPSLFVVTTADSEFNWIEIPLWDDAEGAMEDISIGDPIQAEGKLSKDNGVHNIHVHSQDSIDILTEPPEVKFDSMAIDQITSTTPKVDLEGTVERVGEIKDIQLDDEKVKLREIHVSDLNNDQIQVALWRTNAYEKVAPGDEIIIAGGLAKPHNEKVVVRVGWSGHIGYRSSLEHHHHHH”, the protein production entry is “failed”.

As for “MSYERPLLAPLRAALSRPTPVVHVLIGPRQVGKTTITRQIQESIGISSIYATADSLVPLDSAWIETQWRRAVAEEAASGGPEIRVLILGSSALLMQQGLTESLAGRFFLHRCTHWGYPALEHHHHHH”, the protein production result is reported as “failed”.

For “MSYMGKKKKDCLFHVDGFEEWMDQFCSDSCSNFSFPNQIHIDLCETEQEYILETDVPNVTEQNVVIKKMETGLNICILHKNISLQRNIPLPTTIIYKKMLACLENGFLAIHISKNEVANKHEEKVLFQIEN”, the protein production result is given as “failed”.

Source of the values: a protein production outcome set (Wang et al. 2014).
